The results in this text go back to US20210115138A1 (WUXI BIOLOGICS IRELAND, published 2021).

In test [1] the target is T1, human PD-1 on cells (human, UniProt Q15116 25-288).
T1 construct: whole, on cells; also called cell surface human PD-1; PD-1 expressing CHO-S cells
The test can be described thus: flow cytometry; competition with mFc-PD-L1 on PD-1 expressing CHO-S cells. As for the experimental part:
The mixture was transferred into the 96-well plates seeded with PD-1 expressing CHO-S cells. […] The MFI was evaluated by flow cytometry and analyzed by the software FlowJo.
In general terms: A flow cytometer gives signals particle by particle.

Test [2] deals with T2, mouse Fc-tagged human LAG-3 protein (human, UniProt P18627 23-450).
T2 construct: extracellular domain; also called mouse Fc-tagged LAG-3 protein; not shown: mouse Fc tag
T2 sequence (looked up): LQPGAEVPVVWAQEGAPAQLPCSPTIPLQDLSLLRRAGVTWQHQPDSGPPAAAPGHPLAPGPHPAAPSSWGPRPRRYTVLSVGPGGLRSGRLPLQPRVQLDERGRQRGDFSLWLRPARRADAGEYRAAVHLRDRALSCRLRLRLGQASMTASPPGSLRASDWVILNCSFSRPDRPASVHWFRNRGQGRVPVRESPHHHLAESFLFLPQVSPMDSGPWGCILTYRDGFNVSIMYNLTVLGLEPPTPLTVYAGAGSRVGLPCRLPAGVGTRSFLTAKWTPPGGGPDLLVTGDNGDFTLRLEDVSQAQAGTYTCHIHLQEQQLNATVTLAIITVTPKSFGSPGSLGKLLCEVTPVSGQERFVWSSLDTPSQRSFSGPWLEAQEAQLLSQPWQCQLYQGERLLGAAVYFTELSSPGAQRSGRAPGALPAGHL
The test can be described thus: ELISA; antibody coated, mFc-tagged LAG-3 titrated. As for the experimental part:
The plates were then washed and subsequently incubated with HRP-labeled goat anti-mouse IgG antibody for 1 hour. After washing, TMB substrate was added and the color reaction was stopped by 2M HCl. The absorbance at 450 nm was read using a microplate reader.
Background: An ELISA detects its analyte on a solid surface through an enzyme-linked reagent.

The next test has as its target T3, human CTLA-4 protein (human, UniProt P16410 36-161).
T3 construct: extracellular domain
The test can be described thus: ELISA, human CTLA-4 coated at 1 ug/mL, antibody added at 0.67 and 6.7 nM, OD450. As to the method: (§1) Cross-reactivity to human CD4, CTLA-4 or CD28 was measured by ELISA. Plates were coated with human CD4, CTLA-4 or CD28 at 1 μg/mL overnight at 4° C. […] The plates were then washed and subsequently incubated with corresponding secondary antibody for 60 min. After washing, TMB substrate was added and the color reaction was stopped by 2M HCl.

The target of test [3] is T1, human PD-1 on cells. The test can be described thus: flow cytometry on human PD-1 expressing cells. As to the method:
(§2) MFI of the cells was measured by flow cytometry and analyzed by FlowJo (version 7.6.1).

In the next test the target is T4, mouse PD-1 protein (mouse, UniProt Q02242 25-167, limits assumed).
T4 sequence (looked up): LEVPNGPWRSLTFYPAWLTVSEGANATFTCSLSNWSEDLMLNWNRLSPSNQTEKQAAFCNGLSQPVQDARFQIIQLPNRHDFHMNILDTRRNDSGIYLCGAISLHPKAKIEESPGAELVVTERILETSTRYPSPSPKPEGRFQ
The test can be described thus: ELISA, antibody coated on the plate, mouse PD-1 (His tag on the sheet) added at 0.25, 2.5 and 25 nM, OD450. As for the experimental part:
After blocking and washing, various concentrations of mouse PD-1 protein were added to the plates and incubated at room temperature for 1 hour. The plates were then washed and subsequently incubated with HRP-labeled goat anti-mouse IgG antibody for 1 hour. After washing, TMB substrate was added and the color reaction was stopped by 2M HCl. The absorbance at 450 nm was read using a microplate reader.

In test [4] the target is T5, human LAG-3 on cells (human, UniProt P18627 23-525).
T5 construct: whole, on cells; also called cell surface human LAG-3; human LAG-3 expressing 293F cells
T5 sequence (looked up): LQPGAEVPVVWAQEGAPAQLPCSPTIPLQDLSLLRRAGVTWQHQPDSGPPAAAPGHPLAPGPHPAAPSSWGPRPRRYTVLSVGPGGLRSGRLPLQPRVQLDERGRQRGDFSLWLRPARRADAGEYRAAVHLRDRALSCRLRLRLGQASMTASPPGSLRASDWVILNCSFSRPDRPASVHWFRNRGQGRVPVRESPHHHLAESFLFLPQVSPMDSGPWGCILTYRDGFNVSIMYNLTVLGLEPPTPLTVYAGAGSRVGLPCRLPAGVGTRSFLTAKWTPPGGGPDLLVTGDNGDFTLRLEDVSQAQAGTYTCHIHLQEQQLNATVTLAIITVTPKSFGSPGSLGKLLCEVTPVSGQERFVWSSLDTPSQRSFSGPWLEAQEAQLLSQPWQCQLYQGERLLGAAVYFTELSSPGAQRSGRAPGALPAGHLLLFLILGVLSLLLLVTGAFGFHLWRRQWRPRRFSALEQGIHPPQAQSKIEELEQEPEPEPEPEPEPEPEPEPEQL
The test can be described thus: flow cytometry on human LAG-3 expressing 293F cells. As to the method:
as §2

For test [5], the target named is T6, mouse Fc-tagged human PD-1 protein (human, UniProt Q15116 25-170).
T6 construct: extracellular domain; also called mouse Fc-tagged PD-1 protein; not shown: mouse Fc tag
The test can be described thus: dual-binding ELISA; mFc-PD-1 coated, antibody titrated, detected by His-tagged LAG-3 and anti-His-HRP.

The target in test [6] is T7, His-tagged human PD-1 protein (MW: 40 KD) (human, UniProt Q15116 25-167).
T7 construct: not shown: His tag
The test can be described thus: SPR Biacore 8K; antibody captured on anti-human Fc, His-PD-1 injected. As to the method:
Binding affinity of the bispecific antibodies to the antigen were determined by SPR assay using Biacore 8K. PD-1×LAG-3 antibodies were captured on an anti-human IgG Fc antibody immobilized CMS sensor chip (GE).
(§3) The sensorgrams of blank surface and buffer channel were subtracted from the test sensorgrams. The experimental data was fitted by 1:1 model using Langmiur analysis.
(In SPR one partner is held on a chip, and binding of the other changes the refractive index at the surface.)

The target of test [7] is T2, mouse Fc-tagged human LAG-3 protein. The test can be described thus: flow cytometry; blocking of mFc-LAG-3 binding to MHC-II on Raji cells. As to the method:
The mixture was transferred into the 96-well plates seeded with Raji cells which express MHC-II on the surface. […] The MFI was evaluated by flow cytometry and analyzed by the software FlowJo.

A further test concerns the target T8, human CD28 protein (human, UniProt P10747 19-152).
T8 construct: extracellular domain
The test can be described thus: ELISA, human CD28 coated at 1 ug/mL, antibody added at 0.67 and 6.7 nM, OD450. As for the experimental part:
as §1

Another test concerns the target T9, cynomolgus PD-1 on cells (cynomolgus, UniProt B0LAJ3 25-288).
T9 construct: also called cell surface cynomolgus PD-1
The test can be described thus: flow cytometry on cynomolgus PD-1 expressing 293F cells. As to the method: (§4) MFI of the cells was measured by flow cytometry and analyzed by FlowJo.

Test [8] deals with T1, human PD-1 on cells. The test can be described thus: cell-based or functional assay.
The target in a further test is T10, Human LAG-3 without tag (human, UniProt P18627 23-450).
T10 construct: extracellular domain; also called untagged LAG-3 ECD protein
T10 sequence (looked up): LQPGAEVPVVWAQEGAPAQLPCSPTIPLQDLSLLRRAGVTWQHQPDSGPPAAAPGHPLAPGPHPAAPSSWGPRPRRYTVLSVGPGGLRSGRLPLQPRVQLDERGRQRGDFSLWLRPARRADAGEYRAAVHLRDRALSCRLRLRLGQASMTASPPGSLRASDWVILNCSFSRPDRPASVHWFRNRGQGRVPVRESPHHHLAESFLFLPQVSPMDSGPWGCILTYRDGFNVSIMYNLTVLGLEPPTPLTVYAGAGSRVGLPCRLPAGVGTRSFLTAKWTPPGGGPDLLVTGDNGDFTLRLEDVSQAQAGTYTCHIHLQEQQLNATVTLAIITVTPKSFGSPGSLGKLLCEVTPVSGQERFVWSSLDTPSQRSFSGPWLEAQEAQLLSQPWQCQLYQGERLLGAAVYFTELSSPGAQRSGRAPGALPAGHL
The test can be described thus: SPR; antibody immobilized, untagged human LAG-3 injected, single-cycle kinetics. As for the experimental part:
The chip was regenerated with 10 mM glycine (pH 1.5).
as §3

Test [9] has as its target T5, human LAG-3 on cells. The test can be described thus: cell-based or functional assay.
Test [10] deals with T11, cynomolgus LAG-3 on cells (cynomolgus).
T11 construct: whole, on cells; also called cell surface cynomolgus LAG-3
The test can be described thus: flow cytometry on cynomolgus LAG-3 expressing 293F cells. As to the method: as §4

Test [11] deals with T6, mouse Fc-tagged human PD-1 protein. The test can be described thus: ELISA; antibody coated, mFc-tagged PD-1 titrated.
The target in a further test is human CD4 protein (human, UniProt P01730 26-390, limits assumed). The test can be described thus: ELISA, human CD4 coated at 1 ug/mL, antibody added at 0.67 and 6.7 nM, OD450. As for the experimental part: as §1

T1 sequence (Q15116 25-288): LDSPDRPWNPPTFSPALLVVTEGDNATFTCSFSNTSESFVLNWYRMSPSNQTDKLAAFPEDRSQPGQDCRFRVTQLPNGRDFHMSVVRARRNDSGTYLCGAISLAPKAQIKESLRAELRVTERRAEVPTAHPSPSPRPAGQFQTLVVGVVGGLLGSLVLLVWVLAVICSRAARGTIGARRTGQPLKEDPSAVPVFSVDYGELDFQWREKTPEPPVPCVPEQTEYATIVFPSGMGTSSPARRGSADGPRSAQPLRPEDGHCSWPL
T7 sequence (Q15116 25-167 limits assumed): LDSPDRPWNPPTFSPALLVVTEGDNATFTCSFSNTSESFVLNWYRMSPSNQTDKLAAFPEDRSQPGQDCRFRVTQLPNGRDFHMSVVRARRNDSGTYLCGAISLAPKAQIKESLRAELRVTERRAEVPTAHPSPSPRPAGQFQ
T6 sequence (Q15116 25-170): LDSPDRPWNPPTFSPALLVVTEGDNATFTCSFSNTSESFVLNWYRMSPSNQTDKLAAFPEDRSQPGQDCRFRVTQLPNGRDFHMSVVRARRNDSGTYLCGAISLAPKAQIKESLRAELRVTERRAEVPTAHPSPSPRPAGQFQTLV
T3 sequence (P16410 36-161): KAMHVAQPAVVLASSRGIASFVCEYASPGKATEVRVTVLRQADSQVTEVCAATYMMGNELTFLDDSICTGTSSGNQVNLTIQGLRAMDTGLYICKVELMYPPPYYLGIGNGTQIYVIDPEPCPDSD
T9 sequence (B0LAJ3 entry or part of it limits assumed): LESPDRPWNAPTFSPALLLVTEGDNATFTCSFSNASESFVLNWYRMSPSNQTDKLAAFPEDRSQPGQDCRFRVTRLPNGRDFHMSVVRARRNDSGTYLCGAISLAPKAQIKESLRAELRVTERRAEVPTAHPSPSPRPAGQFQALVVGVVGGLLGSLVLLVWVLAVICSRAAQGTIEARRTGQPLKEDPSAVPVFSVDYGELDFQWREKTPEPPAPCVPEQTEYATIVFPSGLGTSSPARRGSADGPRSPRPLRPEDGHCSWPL

B1: W365-U6T1.G15-1.uIgG4.SP (bispecific antibody)
heavy: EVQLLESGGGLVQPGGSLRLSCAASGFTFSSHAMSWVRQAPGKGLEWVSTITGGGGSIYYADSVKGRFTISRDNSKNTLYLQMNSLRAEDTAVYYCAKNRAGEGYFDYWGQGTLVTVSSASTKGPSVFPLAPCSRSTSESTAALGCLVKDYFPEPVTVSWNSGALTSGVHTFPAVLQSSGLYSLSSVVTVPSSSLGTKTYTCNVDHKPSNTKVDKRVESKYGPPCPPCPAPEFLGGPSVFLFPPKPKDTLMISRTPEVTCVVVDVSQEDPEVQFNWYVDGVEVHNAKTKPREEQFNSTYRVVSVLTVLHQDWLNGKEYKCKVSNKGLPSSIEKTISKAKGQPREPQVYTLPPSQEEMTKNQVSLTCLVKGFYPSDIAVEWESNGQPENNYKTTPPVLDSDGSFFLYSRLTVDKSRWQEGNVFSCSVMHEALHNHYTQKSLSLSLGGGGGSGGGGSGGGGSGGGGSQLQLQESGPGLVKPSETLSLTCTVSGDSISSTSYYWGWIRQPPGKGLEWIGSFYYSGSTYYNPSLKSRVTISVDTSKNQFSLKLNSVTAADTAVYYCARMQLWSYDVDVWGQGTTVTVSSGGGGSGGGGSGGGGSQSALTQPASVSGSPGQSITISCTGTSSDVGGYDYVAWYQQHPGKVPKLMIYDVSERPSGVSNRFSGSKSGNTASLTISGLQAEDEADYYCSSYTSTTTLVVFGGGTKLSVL
light: SYELTQPLSVSVALGQTARITCGGDNIGNKDVHWYQQKPGQAPVLVIYRDSNRPSGIPEGFSGSNSGNTATLTISRAQAGDEADYYCQVWDSIWVFGGGTKLTVLGQPKAAPSVTLFPPSSEELQANKATLVCLISDFYPGAVTVAWKADSSPVKAGVETTTPSKQSNNKYAASSYLSLTPEQWKSHKSYSCQVTHEGSTVEKTVAPTECS
notes: Anti-PD-1 (W3055-1.153.7) human IgG4 S228P; also called W365-G15
In general, IC50 refers to the concentration that inhibits the measured activity by half. High values mean weaker potency in that assay, low ones greater potency in that assay. Usually EC50 stands for the concentration giving half of the maximal effect. By Kd is commonly meant the free concentration of one partner at which half of the binding sites on the other are occupied at equilibrium, for simple one-to-one binding. Low readings indicate higher affinity, high ones lower affinity. Broadly, the koff is a measure of how fast the partners let go of each other. Low readings indicate a long-lived complex, high ones a short-lived complex. Broadly, the kon is a measure of how fast the partners come together. A lower kon goes with slower complex formation. Consider B1, for which the 50% inhibitory concentration (IC50) is 1.09 nM with human PD-1 on cells [1] and 1.68 nM in test [7]. For the same molecule, the EC50 was 0.32 nM in [2]; 1.34 nM in the test with human PD-1 on cells [3]; 5.88 nM with human LAG-3 on cells [4]; 0.05 nM in test [5]; 0.31 nM with cynomolgus PD-1 on cells; 20.9 nM in test [10]. Moreover, the EC50 in test [11] came out at 0.07 nM. Besides, the binding result is “no binding (tested: 6.7 nM)” in the test with human CTLA-4 protein, “no binding (tested: 25 nM (mouse PD-1))” in the test with mouse PD-1 protein, “no binding (tested: 6.7 nM)” with human CD28 protein and “no binding (tested: 6.7 nM)” with human CD4 protein. The Kd in test [6] was determined as 2.16 nM; in the test with Human LAG-3 without tag it was 0.0265 nM. For the same molecule, the results for the off-rate constant (koff) (in test [6]; with Human LAG-3 without tag) were 0.000592 s⁻¹ and 1.89e-05 s⁻¹, respectively. Also, the on-rate constant (kon) amounted to 275000 M⁻¹ s⁻¹ in [6] and 714000 M⁻¹ s⁻¹ with Human LAG-3 without tag. In the test with human PD-1 on cells [8], the “EC50 of NFAT pathways enhancement (luciferase reporter)” value came out at 0.41 nM. For the same molecule, the “EC50 of IL-2 pathways enhancement (luciferase reporter)” value with human LAG-3 on cells [9] was 0.32 nM.
